The source of these data is patent US20220133863A1 (SHIRE HUMAN GENETIC THERAPIES, published 2022).

Data set [1] concerns the molecule itself. Nature of the data set: SEC-MALS and analytical ultracentrifugation; self-association (homotrimer). A general note: In gel filtration, larger molecules generally elute earlier.
Data set [2] deals with the molecule itself. Kind of data set: X-ray crystal structure; self-association (homotrimer). On the procedure:
The crystals (FIG. 8) were obtained from rhNaglu protein purified from culture media treated with mannosidase-I inhibitor, Kifunensine. Naglu Kif contains identical protein sequences as rhNaglu, but different glycosylation pattern. The crystals acquired of Naglu Kif were grown at pH=7.5 and the structure of Naglu Kif was solved at 2.4 Å resolution by X-ray crystallography. Naglu structure (FIG. 9) is identified as having three distinct domains, a N-terminal domain (Domain-I, aa 24-126) followed by a (a/(3)8 barrel domain containing the catalytic glutamates (Domain-II, aa 127-467) and an all helical C-terminal domain (Domain-III, aa 468-743). Similar domain structure has been observed for another Glycoside Hydrolase family-89 protein, cpGH89, a bacterial homolog of Naglu (Ficko-Blean E, et al., PNAS May 6, 2008 vol. 105 no. 18 6560-6565). The active site is at a cleft between domains II and III and the catalytic residues are identified as E316 and E446 located on domain II.

B1: recombinant Naglu-IGFII fusion protein (enzyme)
chain: DEAREAAAVRALVARLLGPGPAADFSVSVERALAAKPGLDTYSLGGGGAARVRVRGSTGVAAAAGLHRYLRDFCGCHVAWSGSQLRLPRPLPAVPGELTEATPNRYRYYQNVCTQSYSFVWWDWARWEREIDWMALNGINLALAWSGQEAIWQRVYLALGLTQAEINEFFTGPAFLAWGRMGNLHTWDGPLPPSWHIKQLYLQHRVLDQMRSFGMTPVLPAFAGHVPEAVTRVFPQVNVTKMGSWGHFNCSYSCSFLLAPEDPIFPIIGSLFLRELIKEFGTDHIYGADTFNEMQPPSSEPSYLAAATTAVYEAMTAVDTEAVWLLQGWLFQHQPQFWGPAQIRAVLGAVPRGRLLVLDLFAESQPVYTRTASFQGQPFIWCMLHNFGGNHGLFGALEAVNGGPEAARLFPNSTMVGTGMAPEGISQNEVVYSLMAELGWRKDPVPDLAAWVTSFAARRYGVSHPDAGAAWRLLLRSVYNCSGEACRGHNRSPLVRRPSLQMNTSIWYNRSDVFEAWRLLLTSAPSLATSPAFRYDLLDLTRQAVQELVSLYYEEARSAYLSKELASLLRAGGVLAYELLPALDEVLASDSRFLLGSWLEQARAAAVSEAEADFYEQNSRYQLTLWGPEGNILDYANKQLAGLVANYYTPRWRLFLEALVDSVAQGIPFQQHQFDKNVFQLEQAFVLSKQRYPSQPRGDTVDLAKKIFLKYYPRWVAGSWGAPGGGGGAAAAAGGGGGGAPGGGGGAAAAAGGGGGGAPGGGGGAAAAAGGGGGGAPLCGGELVDTLQFVCGDRGFYFSRPASRVSRRSRGIVEECCFRSCDLALLETYCATPAKSE
modifications: glycosylated; negative for M6P glycosylation
notes: Secreted from HT1080 cells
As for B1, the binding result in data set [1] is reported as “binds”.

B2: Naglu-Kif (enzyme)
chain: DEAREAAAVRALVARLLGPGPAADFSVSVERALAAKPGLDTYSLGGGGAARVRVRGSTGVAAAAGLHRYLRDFCGCHVAWSGSQLRLPRPLPAVPGELTEATPNRYRYYQNVCTQSYSFVWWDWARWEREIDWMALNGINLALAWSGQEAIWQRVYLALGLTQAEINEFFTGPAFLAWGRMGNLHTWDGPLPPSWHIKQLYLQHRVLDQMRSFGMTPVLPAFAGHVPEAVTRVFPQVNVTKMGSWGHFNCSYSCSFLLAPEDPIFPIIGSLFLRELIKEFGTDHIYGADTFNEMQPPSSEPSYLAAATTAVYEAMTAVDTEAVWLLQGWLFQHQPQFWGPAQIRAVLGAVPRGRLLVLDLFAESQPVYTRTASFQGQPFIWCMLHNFGGNHGLFGALEAVNGGPEAARLFPNSTMVGTGMAPEGISQNEVVYSLMAELGWRKDPVPDLAAWVTSFAARRYGVSHPDAGAAWRLLLRSVYNCSGEACRGHNRSPLVRRPSLQMNTSIWYNRSDVFEAWRLLLTSAPSLATSPAFRYDLLDLTRQAVQELVSLYYEEARSAYLSKELASLLRAGGVLAYELLPALDEVLASDSRFLLGSWLEQARAAAVSEAEADFYEQNSRYQLTLWGPEGNILDYANKQLAGLVANYYTPRWRLFLEALVDSVAQGIPFQQHQFDKNVFQLEQAFVLSKQRYPSQPRGDTVDLAKKIFLKYYPRWVAGSW
modifications: mostly high mannose glycans (produced with Kifunensine in the medium); N-glycans at N261, N272, N435, N503, N526 and N532 (precursor numbering)
notes: This is the protein that was crystallised (2.4 A)
As for B2, in data set [2], the binding result is on record as “binds”.

B3: recombinant human Naglu (enzyme)
chain: DEAREAAAVRALVARLLGPGPAADFSVSVERALAAKPGLDTYSLGGGGAARVRVRGSTGVAAAAGLHRYLRDFCGCHVAWSGSQLRLPRPLPAVPGELTEATPNRYRYYQNVCTQSYSFVWWDWARWEREIDWMALNGINLALAWSGQEAIWQRVYLALGLTQAEINEFFTGPAFLAWGRMGNLHTWDGPLPPSWHIKQLYLQHRVLDQMRSFGMTPVLPAFAGHVPEAVTRVFPQVNVTKMGSWGHFNCSYSCSFLLAPEDPIFPIIGSLFLRELIKEFGTDHIYGADTFNEMQPPSSEPSYLAAATTAVYEAMTAVDTEAVWLLQGWLFQHQPQFWGPAQIRAVLGAVPRGRLLVLDLFAESQPVYTRTASFQGQPFIWCMLHNFGGNHGLFGALEAVNGGPEAARLFPNSTMVGTGMAPEGISQNEVVYSLMAELGWRKDPVPDLAAWVTSFAARRYGVSHPDAGAAWRLLLRSVYNCSGEACRGHNRSPLVRRPSLQMNTSIWYNRSDVFEAWRLLLTSAPSLATSPAFRYDLLDLTRQAVQELVSLYYEEARSAYLSKELASLLRAGGVLAYELLPALDEVLASDSRFLLGSWLEQARAAAVSEAEADFYEQNSRYQLTLWGPEGNILDYANKQLAGLVANYYTPRWRLFLEALVDSVAQGIPFQQHQFDKNVFQLEQAFVLSKQRYPSQPRGDTVDLAKKIFLKYYPRWVAGSW
modifications: glycosylated; lacks mannose-6-phosphate glycan
notes: also called rhNaglu; alpha-N-acetyl-glucosaminidase
Regarding B3, the binding result in data set [1] is “binds”.
